Data from article PMC7755605, “The Interaction of TRAF6 With Neuroplastin Promotes Spinogenesis During Early Neuronal Development” (Frontiers in Cell and Developmental Biology, 2020).

Biological target: T1, N-terminally GST-tagged TRAF6 (mouse, UniProt P70196 1-530)
T1 construct: TNF receptor-associated factor 6 (TRAF6), mouse; amplified by PCR with primers from the start codon to the stop codon; 530 residues by the printed limits of the cc-c construct; also called GST-TRAF6; purified recombinant TRAF6; source: E. coli BL21 (DE3), purified (GST bulk kit); not shown: GST, N-terminal, kept
T1 sequence (looked up): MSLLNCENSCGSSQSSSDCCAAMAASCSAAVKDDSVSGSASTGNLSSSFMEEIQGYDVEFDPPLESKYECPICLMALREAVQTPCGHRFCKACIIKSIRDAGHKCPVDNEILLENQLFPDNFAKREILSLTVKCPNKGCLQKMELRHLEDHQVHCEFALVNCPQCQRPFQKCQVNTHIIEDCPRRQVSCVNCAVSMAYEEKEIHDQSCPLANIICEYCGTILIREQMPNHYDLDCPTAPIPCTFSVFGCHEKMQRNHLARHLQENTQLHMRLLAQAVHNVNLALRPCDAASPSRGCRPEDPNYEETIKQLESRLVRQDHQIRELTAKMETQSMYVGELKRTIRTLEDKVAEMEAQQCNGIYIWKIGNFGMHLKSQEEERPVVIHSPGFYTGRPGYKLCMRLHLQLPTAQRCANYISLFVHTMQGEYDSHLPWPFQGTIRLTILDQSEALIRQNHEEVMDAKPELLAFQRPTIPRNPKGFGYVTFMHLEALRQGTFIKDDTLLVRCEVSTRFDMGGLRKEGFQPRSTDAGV
Test: SPR; BIACORE X100, single cycle kinetics; GST-TRAF6 amine-coupled on a CM5 chip, GST-coated sensor as reference; neuroplastin peptide injected at 2.5, 5, 100, 200 and 400 uM; HBS-P buffer
Details: both partners purified

Kd: 88 µM | stoichiometry N: 1
B1: neuroplastin intracellular peptide containing the TRAF6 binding motif (peptide)
chain: EKRKRPDEVPDAGPMKTNSTNNHKDKNLRQRNTN
modifications: Peptide limits are not printed (possibly in the figure or supplement). The whole cytoplasmic tail is taken by convention from the UniProt topology; it should contain the printed motif RKRPDEVPD. …
